Patent US20020143164A1, “Ras activator nucleic acid molecules, polypeptides and methods of use” (priority 1999, published 2002)

Experiments:
GRF4-cNMP-BD = target: T1, GRF4-cNMP-BD (Homo sapiens, UniProt Q9Y4G8); assay: cAMP-agarose binding assay; details: cAMP agarose beads, anti GRF4 immunoblot
T1 construct: The GST-GRF4-cNMP-BD (residue 101-303); made in house
T1 sequence (Q9Y4G8 101-303): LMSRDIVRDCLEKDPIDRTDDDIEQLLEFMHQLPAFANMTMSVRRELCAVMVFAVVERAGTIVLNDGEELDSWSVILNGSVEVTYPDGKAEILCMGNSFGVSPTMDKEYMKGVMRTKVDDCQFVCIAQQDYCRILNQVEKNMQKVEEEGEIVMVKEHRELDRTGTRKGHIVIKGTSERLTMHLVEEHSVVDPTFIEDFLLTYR
Experimental: Right and left panels in (b) represent two separate experiments.
Following extensive washes in HNTG (20 mM Hepes, pH 7.5, 150 mM NaCl, 0.1% Triton ×100, 10% Glycerol) proteins were eluted off beads with sample buffer, separated on SDS-PAGE and immunoblotted with either anti GST antibodies for the in vitro binding experiments, or with anti GRF4 antibodies for the pull down experiments.

Ras [1] = assay: In vitro pull-down of GRF4 with GST-Ras of different nucleotide-bound states; type: binding; details: lysates of 293T cells with Flag-tagged GRF4, GST-Ras beads
Excerpt: Beads were washed and resolved on SDS-PAGE and subsequently immunoblofted with anti-Flag antibodies to detect Flag-tagged GRF4. […] However, it bound to Ras differentially, depending on the nucleotide-bound states of Ras.

Rap1 = Rap1 activation assay in living cells (GST-RalGDS-RBD pull-down); type: cell-based, human; details: HEK-293T cells, via CDC25 domain
Experimental: (§1) HEK-293T cells were transfected as above, serum starved overnight and then subjected to various treatments, as described in the text. Cells were lysed with lysis buffer (25 mM Hepes, pH 7.5, 150 mM NaCl, 1% NP-40, 0.25% Na deoxycholate, 10% glycerol, 25 mM NaF, 10 mM MgCl2, 1 mM EDTA, 1 mM NaVO4, 10 mg/ml leupeptin, 10 mg/ml aprotinin, 250 mM PMSF) and the level of Ras.GTP or Rap. GTP in the lysates was determined using activation specific probes as described. Briefly, to determined the levels of active Ras (Ras-GTP) in cell, sepharose-bound GST fusion protein of the Ras-binding domain (RBD) of Raf-1 (GST-Raf1-RBD; Upstate Biotechnology Inc.) was used to precipitate Ras-GTP from cell lysates, and the amount of Ras-GTP determined by immunoblotting with anti Ras antibodies (Quality Biotech). Similarly, to determine the level of Rap1-GTP in cell lysates, sepharose-bound GST fusion proteins of the Rap1-binding domain of RaIGDS (GST-RaIGDS-RBD) were used to precipitate Rap1-GTP, which was then detected on a Western blot using anti-Rap1 antibodies (Transduction Lab).

Rat 2 fibroblasts = assay: Transformation assay (foci formation); type: cell-based; details: transient transfection, cultured three weeks
Experimental: Transformation assays were performed using Rat 2 fibroblasts, a suitable cell type for this assay. Rat 2 cells were transiently transfected with empty vector, GRF4 construct, or mutant RasV12 construct (a transforming form of Ras used as a positive control). After transfection, cells were cultured over a period of three weeks with routine changes of media, and were routinely examined for morphology changes under a light microscope.

Ras [2] = assay: Ras activation assay in living cells, GRF4 and deletion mutants expressed in HEK-293T cells; type: cell-based, human; details: HEK-293T cells, no cNMP stimulation
Experimental: HEK-293T cells were transfected with vector alone, GRF4 (WT), GRF4 lacking its cNMP-BD (ΔcNMP-BD) or its CDC25 domain (ΔCDC25), and then treated (or not) with 8-Br-cAMP. Cell lysates were then incubated with GST-Raf1-RBD to precipitate active Ras, and immunobloited with anti Ras antibodies as above (upper panel). Lower panels are controls for total endogenous Ras and transfected GRF4 or its mutants.
Flag, HA or myc tags was added to the N-terminus of full length GRF4 using PCR, and subcloned into the mammalian expression vector pCMV5 (Invitrogen). Mutants GRF4 with deletion of the CDC25 domain (residue 711-1007, GRF4DCDC25 or DCDC25 for short), the cNMP-BD (residue 134-254, DcNMP-BD), the PLPF motif in the PDZ domain (residue 396-399, -PLPF), or bearing mutations in the PDZ-binding motif (SAV to AAA), were generated using PCR. The GST-GRF4-cNMP-BD (residue 101-303) and GST-Carboxy-terminus (residue 1348-1499) were PCR-generated and cloned into pGEX-2T ( Pharmacia). The latter construct was used to generate a fusion protein (GST-GRF4C terminus) which was used to immunize rabbits for the generation of polyclonal anti GRF4 antibodies.
as §1, with “Cells were lysed with lysis buffer (25 mM Hepes, pH 7.5, 150 mM NaCl, 1% NP-40, 0.25% Na deoxycholate, 10% glycerol, 25 mM NaF, 10 mM MgCl2, 1 mM EDTA, 1 mM NaVO4, 10 mg/ml leupeptin, 10 mg/ml aprotinin, 250 mM PMSF) and the level of Ras.GTP or Rap.” left out

Ras [3] = assay: In vitro GEF assay (32P-α-GTP binding to Ras); type: biochemical
Experimental: Full length (GRF4) or CDC25-deleted (ΔCDC25) GRF4, or GRF2, each Flag-tagged, were immunoprecipitated from transfected Hek-293T cells using anti Flag antibodies. Equal amounts of immunoprecipitates were washed with GEF lysis buffer, equilibrated with GEF assay buffer and incubated with 32P-α-GTP (diluted in cold GTP) plus 100 ng of Ras for 30 min. Bound and unbound radiolabelled GTP were then separated by filtration, and the amount of bound GTP determined by scintillation counting, as detailed in the Method section. Fold Ras activation was compared to the activation of Ras in the absence of GRFs (which was set to 1).
GRF4 has a RasGRF(GEF) activity/function. To show its GEF activity, we performed in-vitro GEF assays. Briefly, GST-Ras was added alone (tubes 1 and 2) or along with GST-CDC25, or immunoprecipitated full-length of GRF4 (tubes 3 and 4). All tubes contained assay mixture including cold GTP and P32 alpha GTP. The exchange reactions were stopped at the indicated times. The stopped reaction mixtures were passed through nitrocellulose filters which were then washed with stop buffer to separate bound and unbound nucleotides. Filters were dried and then quantified by scintillation counting to determine bound CPM. The labeled nucleotides trapped on the washed filters were assumed to be Ras-associated. The difference in bound CPM over 30 minute period was determined for reactions where GST-Ras was added alone (it is the difference in bound CPM between tubes 1 and 2) and where GST-Ras was added with a GEF (it is the difference in bound CPM between tubes 3 and 4).

B1: GRF4: Ras guanine nucleotide exchange factor polypeptide, SEQ ID NO: 2, 1499 amino acids (protein, listed as Homo sapiens)
chain: MKPLAIPANHGVMGQQEKHSLPADFTKLHLTDSLHPQVTHVSSSHSGCSITSDSGSSSLSDIYQATESEAGDMDLSGLPETAVDSEDDDDEEDIERASDPLMSRDIVRDCLEKDPIDRTDDDIEQLLEFMHQLPAFANMTMSVRRELCAVMVFAVVERAGTIVLNDGEELDSWSVILNGSVEVTYPDGKAEILCMGNSFGVSPTMDKEYMKGVMRTKVDDCQFVCIAQQDYCRILNQVEKNMQKVEEEGEIVMVKEHRELDRTGTRKGHIVIKGTSERLTMHLVEEHSVVDPTFIEDFLLTYRTFLSSPMEVGKKLLEWFNDPSLRDKVTRVVLLWVNNHFNDFEGDPAMTRFLEEFENNLEREKMGGHLRLLNIACAAKAKRRLMTLTKPSREAPLPFILLGGSEKGFGIFVDSVDSGSKATEAGLKRGDQILEVNGQNFENIQLSKAMEILRNNTHLSITVKTNLFVFKELLTRLSEEKRNGAPHLPKIGDIKKASRYSIPDLAVDVEQVIGLEKVNKKSKANTVGGRNKLKKILDKTRISILPQKPYNDIGIGQSQDDSIVGLRQTKHIPTALPVSGTLSSSNPDLLQSHHRILDFSATPDLPDQVLRVFKADQQSRYIMISKDTTAKEVVIQAIREFAVTATPDQYSLCEVSVTPEGVIKQRRLPDQLSKLADRIQLSGRYYLKNNMETETLCSDEDAQELLRESQISLLQLSTVEVATQLSMRNFELFRNIEPTEYIDDLFKLRSKTSCANLKRFEEVINQETFWVASEILRETNQLKRMKIIKHFIKIALHCRECKNFNSMFAIISGLNLAPVARLRTTWEKLPNKYEKLFQDLQDLFDPSRNMAKYRNVLNSQNLQPPIIPLFPVIKKDLTFLHEGNDSKVDGLVNFEKLRMIAKEIRHVGRMASVNMDPALMFRTRKKKWRSLGSLSQGSTNATVLDVAQTGGHKKRVRRSSFLNAKKLYEDAQMARKVKQYLSNLELEMDEESLQTLSLQCEPATNTLPKNPGDKKPVKSETSPVAPRAGSQQKAQSLPQPQQQPPPAHKINQGLQVPAVSLYPSRKKVPVKDLPPFGINSPQALKKILSLSEEGSLERHKKQAEDTISNASSQLSSPPTSPQSSPRKGYTLAPSGTVDNFSDSGHSEISSRSSIVSNSSFDSVPVSLHDERRQRHSVSIVETNLGMGRMERRTMIEPDQYSLGSYAPMSEGRGLYATATVISSPSTEELSQDQGDRASLDAADSGRGSWTSCSSGSHDNIQTIQHQRSWETLPFGHTHFDYSGDPAGLWASSSHMDQIMFSDHSTKYNRQNQSRESLEQAQSRASWASSTGYWGEDSEGDTGTIKRRGGKDVSIEAESSSLTSVTTEETKPVPMPAHIAVASSTTKGLIARKEGRYREPPPTPPGYIGIPITDFPEGHSHPARKPPDYNVALQRSRMVARSSDTAGPSSVQQPHGHPTSSRPVNKPQWHKPNESDPRLAPYQSQGFSTEEDEDEQVSAV
GRF4-cNMP-BD
  Precipitation by immobilized cAMP from lysates of expressing HEK-293T cells: able to precipitate
Ras [1]
  Binding to EDTA-treated Ras (nucleotide-free): bound strongly
  Binding to Ras-GDP: bound weakly
  Binding to Ras-GTP: bound strongly
Rap1
  Activation of Rap1 in cells: mediates activation of Rap1
Rat 2 fibroblasts
  Foci formation / transformed phenotype of transfected cells: induced foci formation
Ras [2]
  Activation of endogenous Ras by heterologous expression: weak activation
Ras [3]
  In vitro GEF activity on Ras: active on Ras
Ras [3]; immunoprecipitated Flag-tagged protein, 100 ng Ras, 30 min
  Fold Ras activation in vitro (activation without GRFs set to 1): ~2.9 fold
